# According to US20060246440:
# Biological target: T1, GP-NRSF1-8 (UniProt Q13127)
# T1 sequence: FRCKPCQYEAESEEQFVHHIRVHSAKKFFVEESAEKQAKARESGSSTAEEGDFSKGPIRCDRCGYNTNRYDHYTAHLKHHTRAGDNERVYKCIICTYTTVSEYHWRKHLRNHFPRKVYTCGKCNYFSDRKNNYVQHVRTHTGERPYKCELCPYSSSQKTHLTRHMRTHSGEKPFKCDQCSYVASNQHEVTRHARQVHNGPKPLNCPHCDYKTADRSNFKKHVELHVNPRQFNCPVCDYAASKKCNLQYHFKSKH
# Assay: one_hybrid
# Details: bacterial two-hybrid lacZ reporter; nearly 7-fold vs Gal11P only
substance,measurement,value
consensus NRSE (21 bp),activity (fold activation),7
